T1: mouse uPAR on the surface of NCTC L929 cells (mouse, UniProt P35456 24-298)
T1 construct: whole, on cells; also called cell surface mouse uPAR
T1 sequence (looked up): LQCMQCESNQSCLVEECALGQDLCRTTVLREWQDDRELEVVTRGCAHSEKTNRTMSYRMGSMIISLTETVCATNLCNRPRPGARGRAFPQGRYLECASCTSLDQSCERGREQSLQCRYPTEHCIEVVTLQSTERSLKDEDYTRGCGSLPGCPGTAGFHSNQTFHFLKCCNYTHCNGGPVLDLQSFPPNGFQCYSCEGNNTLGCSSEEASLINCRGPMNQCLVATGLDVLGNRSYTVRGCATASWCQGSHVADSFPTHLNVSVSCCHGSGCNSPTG

T2: murine uPAR (form not stated) (mouse, UniProt P35456 24-297, limits assumed)
T2 construct: also called mouse uPAR
T2 sequence (looked up): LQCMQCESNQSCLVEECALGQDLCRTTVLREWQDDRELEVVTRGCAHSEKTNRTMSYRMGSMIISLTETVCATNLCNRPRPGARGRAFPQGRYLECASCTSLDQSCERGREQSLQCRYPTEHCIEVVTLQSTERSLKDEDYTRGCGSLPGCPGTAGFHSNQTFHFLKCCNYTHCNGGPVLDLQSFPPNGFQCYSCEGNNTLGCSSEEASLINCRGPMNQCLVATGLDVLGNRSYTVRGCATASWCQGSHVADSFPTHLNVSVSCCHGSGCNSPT

T3: human Ly6e with a myc tag, expressed in HEK293T cells (human, UniProt Q16553 21-101)
T3 construct: whole, on cells; not shown: myc tag fused on the molecule
T3 sequence (looked up): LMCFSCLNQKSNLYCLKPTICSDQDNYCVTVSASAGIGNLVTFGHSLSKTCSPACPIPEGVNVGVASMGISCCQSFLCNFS


How the values were obtained:
[1] = target: T4, human urokinase-type plasminogen activator receptor (uPAR, CD87), cell-bound (human, UniProt Q03405 23-305); test: cell-based or functional assay
T4 sequence (Q03405 23-305): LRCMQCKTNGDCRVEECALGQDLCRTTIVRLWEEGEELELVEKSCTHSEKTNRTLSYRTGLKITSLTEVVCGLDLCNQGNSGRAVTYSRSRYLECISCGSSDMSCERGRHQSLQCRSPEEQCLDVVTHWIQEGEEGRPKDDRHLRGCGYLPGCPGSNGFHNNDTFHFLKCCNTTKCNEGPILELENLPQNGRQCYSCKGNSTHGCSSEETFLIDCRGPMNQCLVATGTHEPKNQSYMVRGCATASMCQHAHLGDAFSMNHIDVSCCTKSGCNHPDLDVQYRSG

[2] = target: T4, human urokinase-type plasminogen …; test: cell-based or functional assay; remark: listed apart in the source
[3] = target: T5, soluble recombinant human uPAR/His6 (R&D Systems, Cat. # 807-UK-100) (human, UniProt Q03405 23-303); test: low resolution Biacore
T5 construct: range 1-303; Bought protein; also called soluble uPAR; hu-uPAR
T5 sequence (Q03405 other isoform, or with tags, fused parts or gaps limits assumed, form in doubt): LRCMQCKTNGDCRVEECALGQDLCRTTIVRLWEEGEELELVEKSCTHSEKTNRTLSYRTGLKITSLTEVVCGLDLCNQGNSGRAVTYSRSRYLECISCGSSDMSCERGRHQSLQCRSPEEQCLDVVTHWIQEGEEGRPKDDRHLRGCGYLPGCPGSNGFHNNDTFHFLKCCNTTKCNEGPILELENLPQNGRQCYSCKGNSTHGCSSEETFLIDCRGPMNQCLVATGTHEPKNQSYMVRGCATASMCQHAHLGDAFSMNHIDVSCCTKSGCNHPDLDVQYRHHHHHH
Method: (§1) A high-density goat anti-human antibody surface over a CM5 Biacore™ chip was prepared using routine amine coupling. […] Each mAb was captured on a separate flow cell using a 30-second contact time at 10 μL/min followed by a 5-minute wash at a 100 μL/min flow rate for stabilization of the mAb baseline. […] All antigen samples were prepared in the running buffer.

[4] = target: T1, mouse uPAR on the surface of NCTC L929 …; test: FACS, NCTC L929 mouse cells
Method: (§2) To make the mouse cross-reactivity results conclusive, direct binding of the mAbs to cell-bound mouse uPAR was measured using FACS analysis. The mouse cell line derived from the connective tissue, NCTC L929, was employed for FACS analysis. The harvested cells were resuspended at 50,000 cells/well using FACS buffer into a V-bottom plate which was put on ice. […] After washing, Cy5-labeled goat anti-human IgG Fc at 5 μg/ml and 7AAD at 5 μg/ml was added. The mixtures were incubated for 15 min on ice, washed and resuspended in cold FACS buffer for FACS analysis.

[5] = target: T2, murine uPAR (form not stated); test: summary column Murine X-reactivity
[6] = target: T1, mouse uPAR on the surface of NCTC L929 …; test: FACS, NCTC L929 mouse cells, mAb 6.25 µg/ml
Method: as §2

[7] = target: T4, human urokinase-type plasminogen …; test: FACS competition with FITC-tc-uPA, line material
From the text: (§3) Briefly, murine fibroblast L929 cells (ATCC) were transfected to express human uPAR.

[8] = target: T4, human urokinase-type plasminogen …; test: FACS, cells expressing human uPAR, line material
[9] = target: T5, soluble recombinant human uPAR/His6 …; test: low resolution Biacore, mAb captured by goat anti-human, hu-uPAR 312 nM;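 also: surface plasmon resonance on a CM5 chip with goat anti-human antibody surface made by amine coupling, each mAb from supernatant captured per flow cell, kinetics fitted including mass transport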
Method: as §1
A mass transport coefficient was used in fitting the data.

[10] = target: T4, human urokinase-type plasminogen …; test: FACS, U937 cells, mAb 5 µg/ml on ice, alexa647 goat anti-human F(ab), not stripped
Method: A cell suspension containing 100,000 cells was pipetted into each well of a V-bottom plates in duplicate. Two V-bottom plates were prepared, one to be kept at 37° C. during internalization with antibody complex, and the other to be incubated at 4° C. Each of the eight uPAR mAbs was incubated with U937 cells at 5 μg/ml on ice for 15 min. Incubation on ice was necessary to prevent internalization of the primary mAbs. The cells were then washed with cold FACS buffer. Cells were subsequently incubated on ice in 100 μl of 5 μg/ml alexa647-labelled goat anti-humanF(ab) (Invitrogen catalogue number A21249) in cold FACS buffer for 15 min. This allowed the goat FAB bind to the bound uPAR mAbs without permitting any internalization. After a 15 minute incubation on ice, one plate was kept on ice, while the other plate was incubated at 37° C. for 1 hour.
Following the 1 hr incubation with the mAb-FAB complex, the cells were washed twice with cold 5% FACS buffer, and 200 μl of Tris(2-carboxyethyl)phosphine HCl (TCEP) was added to each well as a stripping agent. The plates were both incubated with TCEP on ice for 1 hour, followed by washing and resuspending with FACS buffer. 4 μl of 7-Amino-Actinomycin D (7AAD) was added to each well, followed by 10 min incubation on ice before FACS analysis was conducted.

[11] = target: T6, cynomolgus monkey uPAR, cell-bound (cynomolgus monkey, UniProt Q9GK78 23-305); test: FACS, GeoMean; cynomolgus uPAR expressed on 293T cells; antibody concentration not given
T6 construct: whole, on cells; also called cyno-uPAR
T6 sequence (Q9GK78 23-305): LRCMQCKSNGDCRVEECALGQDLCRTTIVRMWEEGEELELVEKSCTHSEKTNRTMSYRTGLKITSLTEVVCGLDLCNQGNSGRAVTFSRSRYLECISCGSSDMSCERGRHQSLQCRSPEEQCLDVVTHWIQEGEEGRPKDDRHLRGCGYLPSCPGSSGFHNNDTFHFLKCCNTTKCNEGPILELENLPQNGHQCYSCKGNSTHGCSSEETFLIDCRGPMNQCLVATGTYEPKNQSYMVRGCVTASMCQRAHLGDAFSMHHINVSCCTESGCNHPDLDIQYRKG

[12] = target: T3, human Ly6e with a myc tag, expressed in …; test: FACS, HEK293T cells expressing Ly6e, supernatant 1:2
Method: The reactivity of the antibodies to the HEK293T transfected to express Ly6e was determined by FACS analysis, using 1:2 hybridoma supernatants, and probed with goat anti-human γ chain conjugated with Cy5 (2.5 mg/ml, Jackson Immune Research). Binding of an anti-myc antibody (10 μg/ml, Invitrogen) to the transfectants served as a positive control, and binding of this antibody to the (Ly6e negative) parental cells served as the negative control.

[13] = target: T5, soluble recombinant human uPAR/His6 …; test: limited antigen ELISA, uPAR coat 20 ng/mL, sample 1:25
Method: (§4) ELISA plates were coated with a lower amount ofuPAR in comparison with the High Antigen Quantitation assay described below (320, 160, 80, 40 and 20 ng/mL). Samples containing one concentration of antibody (Ab) (1:25 dilution) were incubated overnight to allow Ab binding to approach equilibrium.

[14] = target: T5, soluble recombinant human uPAR/His6 …; test: limited antigen ELISA, uPAR coat 80 ng/mL, sample 1:25
Method: as §4

[15] = target: T4, human urokinase-type plasminogen …; test: FACS, B300.19 cells expressing human uPAR, anti-human gamma Cy5
[16] = target: T4, human urokinase-type plasminogen …; test: FACS competition, FITC-tc-uPA on L929 cells expressing human uPAR, supernatant 1:2
From the text: as §3

Row | inhibition of plasminogen activation on U937 cells [1] [%] | Plasminogen activation inhibition (IC50, ug/ml) [2] [µg/mL] | Kd [3] [nM] | binding result [4] | binding result [5] | X Geo Mean [6] | Human uPAR/uPA binding inhibition (%, line material) [7] [%] | Ab to cell bound Ag (line material, FACS) [8] | Kd [9] [nM] | koff [9] [s⁻¹] | kon [9] [M⁻¹ s⁻¹] | geo mean cold - TCEP [10] | binding result [11] | binding result [12] | LA at 20 ng/ml [13] | LA at 80 ng/ml [14] | gCy5 Geo Mean Pos Cells [15] | uPA/uPAR binding Inhibition % [16] [%] | Binder
1 | > 90 | 0.066 | 3.5 | no binding (tested: 6.25 µg/ml) | no binding | 11.7 | 78 | 514 | 3.5 | 0.00042 | 120000 | 42.5 | binds |  |  |  |  |  | anti-uPAR monoclonal antibody 1.99.1 (antibody, V domains shown) VH: EVQLVESGGGLIQPGGSLRLSCAASGFTVRSNYMSWVRQAPGKGLEWISVIYTGGSTYYADSVKGRFSISRDNSKNTLYLQMNSLRAEDTAVYYCAREGAVAGFDYWGQGTLVTVSS VL: EIVMTQSPATLSVSPGERATLSCRASQSISSNLAWYQQKPGQAPRLLIYGASTRATGIPARFSGSGSGTEFTLTISSLQSEDFAVYYCQQYTNWPLTFGGGTKVEIK
2 | > 90 | 0.056 | 2.7 | no binding (tested: 6.25 µg/ml) | no binding | 9.59 | 77 |  | 2.7 | 0.00032 | 120000 | 46 | binds | no binding (tested: GeoMean ratio 1.95) | 0.16 | 1.03 | 412 | 77 | anti-uPAR monoclonal antibody 4.19.1 (antibody, V domains shown) VH: EVQLVESGGGLIQPGGSLRLSCAASGFSVSSNYMNWVRQAPGKGLEWVSVIYTGGSTYYADSVKGRFTISRDNSKNTLYLQMNSLRAEDTAVYYCARDTYLYGMDVWGQGTTVTVSS VL: EIVMTQSPATLSVSPGESATLSCRTSQSVSSNLAWYQQKPGQTPRLLIYGASARATGVPARFSGSGSGTEFTLTISSLQSEDFAVYYCQQYYNWPLTFGGGTKVEIK
3 | > 90 | 0.067 | 20.6 | no binding (tested: 6.25 µg/ml) | no binding | 8.97 | 71 |  | 20.6 | 0.0013 | 63000 | 33.4 | binds | no binding (tested: GeoMean ratio 1.95) | 0.06 | 0.21 | 317 | 71 | anti-uPAR monoclonal antibody 4.12.1 (antibody, V domains shown) VH: EVQLVESGGGLVQPGGSLRLSCAASGFTFSSYWMSWVRQAPGTGLDWVANINQDGSERYYVDSVKGRFTISRDNAKNSPHLQMNSLRAEDTAVYYCAREGSGGRYGGWYFDLWGRGTLVTVSS VL: not shown
